Experimental data taken from patent publication US20230051715A1 (MABWELL THERAPEUTICS, published 2023).

What was measured:
[1] = target: T1, human C1s deletion mutant 1 (M151) (human) (UniProt P09871); assay: ELISA, plate coated with 200 ng/well HuC1s(M151), OD450nm
T1 sequence: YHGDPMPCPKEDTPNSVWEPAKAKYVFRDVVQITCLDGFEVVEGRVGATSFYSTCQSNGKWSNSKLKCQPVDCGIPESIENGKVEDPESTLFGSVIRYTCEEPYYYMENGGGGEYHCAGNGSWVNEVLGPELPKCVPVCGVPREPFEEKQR

[2] = target: T2, C1s in normal human serum (NHS, CompTech NHS) (human, UniProt P09871 16-688); assay: cell-based or functional assay
T2 sequence (looked up): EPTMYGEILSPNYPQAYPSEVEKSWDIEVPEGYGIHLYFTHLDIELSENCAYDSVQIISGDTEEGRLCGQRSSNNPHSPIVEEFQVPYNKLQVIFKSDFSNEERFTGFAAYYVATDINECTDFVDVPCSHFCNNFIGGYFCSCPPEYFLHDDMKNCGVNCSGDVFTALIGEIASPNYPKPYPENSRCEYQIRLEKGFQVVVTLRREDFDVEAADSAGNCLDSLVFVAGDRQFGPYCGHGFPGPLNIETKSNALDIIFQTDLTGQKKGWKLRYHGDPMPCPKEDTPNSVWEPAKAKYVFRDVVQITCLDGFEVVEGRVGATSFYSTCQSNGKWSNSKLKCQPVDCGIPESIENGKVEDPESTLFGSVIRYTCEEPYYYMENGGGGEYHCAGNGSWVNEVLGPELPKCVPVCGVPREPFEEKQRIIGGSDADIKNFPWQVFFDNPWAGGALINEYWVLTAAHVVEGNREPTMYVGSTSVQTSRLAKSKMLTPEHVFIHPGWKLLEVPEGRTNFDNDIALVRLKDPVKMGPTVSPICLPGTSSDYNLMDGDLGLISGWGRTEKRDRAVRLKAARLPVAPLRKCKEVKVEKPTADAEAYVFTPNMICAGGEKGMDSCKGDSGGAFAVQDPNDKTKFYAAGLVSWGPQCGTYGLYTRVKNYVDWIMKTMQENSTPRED

[3] = target: T3, human C1s mutant M7 (D343Y & E351A) (human, UniProt P09871 16-688); assay: ELISA, plate coated with human C1s mutant M7: D343Y, E351A, OD450nm
T3 construct: The entry is the mutant itself
T3 sequence: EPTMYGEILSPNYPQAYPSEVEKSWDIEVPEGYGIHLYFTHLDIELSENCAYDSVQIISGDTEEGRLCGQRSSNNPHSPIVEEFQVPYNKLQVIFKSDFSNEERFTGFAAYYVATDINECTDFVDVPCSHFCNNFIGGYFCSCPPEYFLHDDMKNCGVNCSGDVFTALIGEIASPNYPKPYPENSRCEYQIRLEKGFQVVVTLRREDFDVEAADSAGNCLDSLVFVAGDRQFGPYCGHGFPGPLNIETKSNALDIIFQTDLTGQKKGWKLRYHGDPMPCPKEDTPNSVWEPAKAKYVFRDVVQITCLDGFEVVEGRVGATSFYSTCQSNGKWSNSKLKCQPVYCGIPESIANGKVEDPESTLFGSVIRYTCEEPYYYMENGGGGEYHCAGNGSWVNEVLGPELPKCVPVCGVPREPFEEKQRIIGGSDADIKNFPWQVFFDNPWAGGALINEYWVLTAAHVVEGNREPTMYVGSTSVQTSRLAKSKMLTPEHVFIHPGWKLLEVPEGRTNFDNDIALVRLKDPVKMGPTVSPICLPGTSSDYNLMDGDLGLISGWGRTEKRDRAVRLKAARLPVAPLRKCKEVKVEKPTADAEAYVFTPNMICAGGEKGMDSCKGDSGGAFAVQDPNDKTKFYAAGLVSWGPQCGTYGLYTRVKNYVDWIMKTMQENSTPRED
Protocol: ELISA was carried out by first coating 96-well plates with 200 ng/well of full-length or truncated C1s proteins overnight. The next morning, plates were blocked with SuperBlock T20 blocking buffer (Thermo Scientific 37536) for 1 h with gentle shaking. Then, various concentrations of anti-C1s antibodies diluted in SuperBlock T20 blocking buffer were added to the plates and incubated for 1 h with gentle shaking. Mouse IgG (Sigma-Aldrich 15381) and human IgG1 (BioXCell BP0297) were used as negative controls. The plates were washed before incubating with HRP conjugated secondary antibodies diluted in SuperBlock T20 blocking buffer (goat anti-mouse IgG (H+L) cross-adsorbed secondary antibody HRP (Invitrogen G-21040) or goat anti-human IgG antibody, HRP conjugate (Millipore AP309P)) for 1 h with gentle shaking. At last, the plates were washed and color developed with ELISA liquid HRP substrate (Sigma-Aldrich), followed by stopping the reaction with addition of 1M H₂SO₄ in the same volume as the ELISA liquid substrate. Bound antibody was measured by absorbance at OD₄₅₀ₙₘ.
Binding of anti-C1s antibodies to mutants M1-M20 of human C1s was measured by ELISA as described in Example 4, and results are shown in FIGS. 6B-6U. All anti-C1s humanized variants including hz2-7(H1L2), hz2-8(H1L2 G80A) and hz2-8(H1L2 G80A/T82A) maintained strong binding properties to the majority (16 out of 20) of C1s mutants including M1 (FIG. 6B), M2 (FIG. 6C), M3 (FIG. 6D). M4 (FIG. 6E), M7 (FIG. 6H), M8 (FIG. 6I), M10 (FIG. 6K), M11 (FIG. 6L), M12 (FIG. 6M), M13 (FIG. 6N), M15 (FIG. 6P), M16 (FIG. 6Q), M17 (FIG. 6R), M18 (FIG. 6S), M19 (FIG. 6T) and M20 (FIG. 6U).

B1: Anti-C1s antibody 2-7 (antibody, human IgG1, kappa, V domains shown)
VH: EVKLEESGGGLVPPGGSMKLSCVASGFTFSNYFMNWVRQSPEKGLEWVAEIRLKFTNYATHYAESVEGRFTISRDDSKSSVYLQMNNLRAEDTGIYYCTRDYGSRNGYFDYWGQGTTLTVSS
VL: DIVMTQAAPSVPVTPGESVSISCRSSKSLLHSNGNTFLYWFLQRPGQSPQLLIYRMSNLASGVPDRFSGSGSGTAFTLRVSRVEAEDVGIYYCMQHLEYPYTFGGGTKLEIKT
notes: the HC/LC entries may hold it too; also called clone 2-7
EC50 [1]: 0.013 µg/mL

B2: Anti-C1s antibody hz2-7(H1L2) (antibody, V domains shown)
VH: EVQLLESGGGLVQPGGSLRLSCAASGFTFSNYFMNWVRQAPGKGLEWVSEIRLKFTNYATHYADSVKGRFTISRDDSKSTLYLQMNSLRAEDTAVYYCTRDYGSRNGYFDYWGQGTLVTVSS
VL: DIVMTQTPLSLPVTPGEPASISCRSSKSLLHSNGNTFLYWFLQKPGQSPQLLIYRMSNLASGVPDRFSGSGSGTDFTLKISRVEAEDVGVYYCMQHLEYPYTFGGGTKLEIKR
notes: Humanized, human IgG1 / kappa; also called hz2-7(1L2)
EC50 [1]: 0.008 µg/mL
IC50, inhibition of IgM-induced C4 deposition from NHS [2]: 1.1 µg/mL
IC50, inhibition of human complement-mediated lysis of EA [2]: 4.1 µg/mL
EC50 [3]: 0.015 µg/mL

B3: Anti-C1s antibody hz2-8 (H1L2 G80A) (antibody, V domains shown)
VH: QVQLVQSGAEVKKPGASVKVSCKASGFNIKEYYMHWVRQAPEQGLEWMGWIDPENADTIYAQKFQGRVTITADTSTNTAYMELSSLRSEDTAVYYCARSRLFFAYWGQGTLVTVSS
VL: DIQMTQSPKSLSASVGDRVTITCRASQDVRTALDWYQQKPGQSPKLLIYSASYRYSGVPSRFSGSGSGTDFTLTISSLQPEDFATYYCQQQYTTPYTFGQGTKLEIKR
notes: Humanized variant with G80A in HC CDR2 (already in the entry), human IgG1 / kappa
IC50, inhibition of IgM-induced C4 deposition from NHS [2]: 0.5 µg/mL
EC50 [3]: 0.012 µg/mL

B4: Anti-C1s antibody hz2-8 (H1L2 G80A/T82A) (antibody, V domains shown)
VH: QVQLVQSGAEVKKPGASVKVSCKASGFNIKEYYMHWVRQAPEQGLEWMGWIDPENADAIYAQKFQGRVTITADTSTNTAYMELSSLRSEDTAVYYCARSRLFFAYWGQGTLVTVSS
VL: DIQMTQSPKSLSASVGDRVTITCRASQDVRTALDWYQQKPGQSPKLLIYSASYRYSGVPSRFSGSGSGTDFTLTISSLQPEDFATYYCQQQYTTPYTFGQGTKLEIKR
notes: Humanized variant with G80A and T82A in HC CDR2 (already in the entry), human IgG1 / kappa
IC50, inhibition of IgM-induced C4 deposition from NHS [2]: 0.4 µg/mL
EC50 [3]: 0.011 µg/mL

B5: Anti-C1s antibody 2-8 (antibody, V domains shown)
VH: EVQLQQSGAELVRPGALVKLSCKASGFNIKEYYMHWVKQRPEQGLEWIGWIDPENGDTIYDPKFQGKASITADTSSNTAYLQLSSLTSEDTAVYYCARSRLFFAYWGQGTLVTVSA
VL: DIVMTQSHKFMSTSVGDRVSFTCKASQDVRTAVDWYQQKPGQSPKLLIYSASYRYTGVPDRFTGTGSGTDFTFTISSVQAEDLAVYFCQQQYTTPYTFGGGTKLEIKT
notes: the HC/LC entries may hold it too; also called clone 2-8
EC50 [1]: 0.018 µg/mL
